The text below walks through data of patent US20250277199, “NOVEL CRISPR-CAS NUCLEASES FROM METAGENOMES” (Brain Biotech AG, published 2025).

In this data set the target is T1, BMC14 (uncultured bacterium (metagenome)).
T1 chain: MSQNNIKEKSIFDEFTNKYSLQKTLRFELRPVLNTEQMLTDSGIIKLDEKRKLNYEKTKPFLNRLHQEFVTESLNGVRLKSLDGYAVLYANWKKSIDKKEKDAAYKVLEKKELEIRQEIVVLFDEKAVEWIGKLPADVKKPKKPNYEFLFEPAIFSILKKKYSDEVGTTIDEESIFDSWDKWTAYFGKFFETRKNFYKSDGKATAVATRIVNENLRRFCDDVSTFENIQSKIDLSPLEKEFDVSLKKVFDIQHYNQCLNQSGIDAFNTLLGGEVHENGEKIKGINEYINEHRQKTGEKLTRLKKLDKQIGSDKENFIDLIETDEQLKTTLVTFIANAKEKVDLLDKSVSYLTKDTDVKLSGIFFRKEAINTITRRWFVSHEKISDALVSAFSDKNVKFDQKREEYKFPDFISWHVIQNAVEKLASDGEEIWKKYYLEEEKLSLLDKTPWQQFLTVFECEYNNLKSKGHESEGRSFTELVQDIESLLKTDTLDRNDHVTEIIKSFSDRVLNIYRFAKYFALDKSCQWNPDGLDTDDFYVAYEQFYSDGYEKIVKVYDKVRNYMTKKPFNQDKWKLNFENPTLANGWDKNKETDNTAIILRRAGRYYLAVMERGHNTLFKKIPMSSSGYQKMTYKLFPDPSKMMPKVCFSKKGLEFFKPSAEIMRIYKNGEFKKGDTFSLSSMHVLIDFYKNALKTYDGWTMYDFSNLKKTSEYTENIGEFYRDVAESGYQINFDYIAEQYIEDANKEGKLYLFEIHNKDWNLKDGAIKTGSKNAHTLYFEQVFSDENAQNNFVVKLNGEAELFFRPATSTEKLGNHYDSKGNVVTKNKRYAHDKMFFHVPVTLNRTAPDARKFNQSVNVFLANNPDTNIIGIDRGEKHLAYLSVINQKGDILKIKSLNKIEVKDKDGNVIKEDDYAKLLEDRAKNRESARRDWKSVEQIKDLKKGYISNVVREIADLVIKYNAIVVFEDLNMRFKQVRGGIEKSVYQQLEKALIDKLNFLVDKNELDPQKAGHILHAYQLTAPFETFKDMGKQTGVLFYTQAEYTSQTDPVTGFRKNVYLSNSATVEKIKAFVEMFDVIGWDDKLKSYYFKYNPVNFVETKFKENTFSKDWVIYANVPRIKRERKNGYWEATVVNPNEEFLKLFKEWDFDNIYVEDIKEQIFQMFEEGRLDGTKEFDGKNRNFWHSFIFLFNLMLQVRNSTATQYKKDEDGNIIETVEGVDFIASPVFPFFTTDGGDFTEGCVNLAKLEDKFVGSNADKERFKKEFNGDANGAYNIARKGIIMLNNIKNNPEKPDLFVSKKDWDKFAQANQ
Briefly: cell_activity; PAM not stated; E. coli depletion, 30 C. The gist of the method:
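E. coli carrying arabinose-induced (0.2%) BMC nuclease, grown at 30° C., made electrocompetent and electroporated with 50-100 ng plasmid carrying gRNA against malQ. Transformants plated on selective M9-glucose agar with kanamycin/ampicillin (± nourseothricin), and growth scored after 48 h at 30° C.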

B1: malQ gRNA (BMC stem-loop + 24 nt spacer) ; malQ protospacer (ssRNA ; dsDNA)
RNA: GAUUUCUACUAUUGUAGAUGUGGCGGUACGUUGAUGCAUCGCG
DNA 1: GTGGCGGTACGTTGATGCATCGCG
DNA 2: CGCGATGCATCAACGTACCGCCAC
Turning to B1, the activity is more than 99.9 % colony reduction.
